Values quoted from earlier work, collected in article PMC10581250.

What was measured:
[1] = target: KGD (Mycobacterium smegmatis) (UniProt A1KI36)
[2] = target: OdhA (E1oE2o subunit) (Corynebacterium glutamicum) (UniProt Q8NRC3)
[3] = target: OdhA (Corynebacterium glutamicum) (UniProt Q8NRC3); assay: surface plasmon resonance

Sequence of UniProt A1KI36 (A1KI36 whole entry): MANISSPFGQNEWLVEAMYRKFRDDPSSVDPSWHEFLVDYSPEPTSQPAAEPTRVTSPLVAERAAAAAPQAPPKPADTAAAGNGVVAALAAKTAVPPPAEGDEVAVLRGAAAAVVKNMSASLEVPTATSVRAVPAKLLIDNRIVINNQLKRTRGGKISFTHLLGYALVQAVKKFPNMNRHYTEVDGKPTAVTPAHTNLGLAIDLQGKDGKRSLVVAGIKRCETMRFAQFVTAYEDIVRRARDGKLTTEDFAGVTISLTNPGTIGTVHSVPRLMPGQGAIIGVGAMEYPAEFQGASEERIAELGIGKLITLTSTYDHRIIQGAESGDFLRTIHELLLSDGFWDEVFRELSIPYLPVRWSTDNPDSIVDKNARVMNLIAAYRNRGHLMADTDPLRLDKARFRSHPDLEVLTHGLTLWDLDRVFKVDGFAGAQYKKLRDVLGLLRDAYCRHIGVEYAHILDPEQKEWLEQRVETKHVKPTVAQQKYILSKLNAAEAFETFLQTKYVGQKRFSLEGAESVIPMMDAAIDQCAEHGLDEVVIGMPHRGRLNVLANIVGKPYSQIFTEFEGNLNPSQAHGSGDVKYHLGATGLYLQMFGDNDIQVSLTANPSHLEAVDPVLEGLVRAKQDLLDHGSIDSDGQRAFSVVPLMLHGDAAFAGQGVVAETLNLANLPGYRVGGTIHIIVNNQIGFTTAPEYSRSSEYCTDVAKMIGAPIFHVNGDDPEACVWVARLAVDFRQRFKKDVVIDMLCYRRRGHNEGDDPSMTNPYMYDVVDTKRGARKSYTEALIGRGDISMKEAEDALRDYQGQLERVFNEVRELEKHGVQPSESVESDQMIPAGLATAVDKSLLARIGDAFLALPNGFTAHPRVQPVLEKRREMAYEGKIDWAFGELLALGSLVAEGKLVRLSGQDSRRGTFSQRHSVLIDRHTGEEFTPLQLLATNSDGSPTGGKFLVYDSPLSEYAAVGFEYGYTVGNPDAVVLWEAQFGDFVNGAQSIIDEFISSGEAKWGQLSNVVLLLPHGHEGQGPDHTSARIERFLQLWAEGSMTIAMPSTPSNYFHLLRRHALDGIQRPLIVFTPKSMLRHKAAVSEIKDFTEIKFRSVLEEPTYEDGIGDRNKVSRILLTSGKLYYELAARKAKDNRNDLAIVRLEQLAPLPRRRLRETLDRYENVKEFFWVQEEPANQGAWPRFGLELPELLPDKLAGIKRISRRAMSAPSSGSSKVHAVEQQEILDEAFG

Substance | Kd [1] | Ki [2] | Kd [3]
GarA (from UniProt P9WJA9) | 1920 nM |  | 
OdhI (from UniProt Q8NQJ3) |  | 2.4 nM | 13.8 nM
